Source: patent publication US20240324599A1, “PESTICIDAL ENZYMES FOR USE ON NEMATODES, INSECTS, AND MOLLUSKS” (priority 2023, published 2024)
Like-named read-outs stand apart in the source and are kept apart here.

Key:
Type in all cases: in vivo
[1] = test system: Diamondback moth (Plutella xylostella); assay: Diet-surface overlay (DSO) bioassay; settings: Table 44, Lipase 0.14 U/mL diet
Experimental: (§1) Diet-surface overlay bioassays are conducted with artificial diet mixes without antibiotics in 1.5 cm^2 cell bioassay trays(s). Artificial diets are commercially available from Southland Products Inc. Diets were prepared by dispersing 0.5 mL of molten diet to each 1.5 cm^2 cell. After solidification, 0.1 mL enzyme treatments were dispersed on top of diet in each cell and the tray was gently rocked in an orbital shaker to spread the liquid uniformly over the diet surface. Trays were placed under clean airflow until the surface of each cell was uniformly dried. One or two 16-cell sections were used per treatment (the number in larvae treated was 16 or 32).
(§2) One healthy first instar larva was placed into each treatment cell, each 16-cell section was covered with a re-sealable lid and incubated at 27° C. and light-dark period of 16:8 hrs. After 7 days, and according to the species, the number of individuals in the following developmental categories was recorded.
(§3) Diamondback moth (Plutella xylostella): Dead Larva (lack of movement), Larva Stage I (≤50% relative size), Larva Stage II (100% relative size, full size), Early Pupa (light green color), Late Pupa (light-dark brown color), and Adult.
(§4) Negative/untreated controls were treated with filtered water and positive controls were treated with lethal doses of Bacillus thuringiensis subsp. Kurstaki (Btk) spores at 1000 ppm.

[2] = test system: Btk resistant Diamondback moth; assay: Diet-surface overlay (DSO) bioassay; settings: Table 45
Experimental: as §1, §2, §3, §4
However, both neutral proteases reduced the number of individuals reaching adult stage.

corn = assay: Field trial: PytH Esterase corn seed treatment, yield; settings: for Yield: corn seed treatment, 0.5 fl oz/unit with Control Base Package
Excerpt: 0.5 fl oz/unit of PythH Esterase from recombinant Bacillus subtilis fermentation (SEQ ID NO: 255) was coated onto Hybrid corn seeds treated with Fludioxinil fungicide, ipconazole fungicide, peridium 1006 polymer, and Sensient Red (colorant). A control treatment without esterase enzyme was also created. The seed treated with esterase and control seed was planted in replicated trials distributed across 10 replicated plots with 4 replicates of 100 ft2 each at each site.

[3] = test system: SCN juveniles (SCN HG type 1.2.5.7, race 2)
Excerpt: To identify an additional esterase enzyme with efficacy in reducing SCN viability, we performed an in-vitro plate assay with a Pseudomonas sp. esterase (SEQ ID NO: 248) free enzyme direct treatment. The Pseudomonas sp. esterase (SEQ ID NO: 248) was produced by fermentation in Bacillus subtilis. The enzyme was cloned into a Bacillus expression plasmid p1797 with isopropyl β-d-1-thiogalactopyranoside (IPTG) inducible expression. The plasmid was transformed into B. subtilis, and the gene sequence was confirmed. The strain was grown in rich media until an optical density (OD) 0.2-0.5 was reached. Enzyme expression was then induced by addition of […] IPTG. Following the culture harvest, cells were removed by filtration through a […] filter. The culture filtrate containing the secreted enzyme was then collected and used for further applications.
(§5) SCN eggs were obtained from SCN HG type 1.2.5.7, race 2. Eggs were rinsed 4 times with sterile water. Eggs were transferred to a 6-well plate and resuspended in 5 mL of 3 mM ZnSO4. The plate was sealed with parafilm, covered with aluminum foil to prevent light from entering the plate, and placed in a plate growth chamber at 25° C. and 80% relative humidity. After 6-7 days of incubation, an estimate of hatched SCN juveniles was obtained from the well to determine the overall number of juveniles per 10 μL. The concentration of the hatchery solution was adjusted until it consisted of 20-30 juveniles per 10 μL.
Potato dextrose agar media containing chloramphenicol and chlortetracycline was prepared and added to sterile twenty-four-well cell culture plates (1 mL per well). The plates were divided according to the pre-determined N-value for each treatment (N=12-24). Each treatment being tested was added to the agar surface within each well at a rate of 40 μL per well. Without allowing the treatments to dry, 10 μL of the prepared nematode mixture was added to the agar surface within each well.
To quantify the treatments' effects on nematode viability, the nematodes were examined under a dissecting microscope at 20× magnification. Initial (T0) values for the number of live juveniles, number of dead juveniles and total number of juveniles were recorded immediately after preparation of each well. The plates were then wrapped in parafilm around the open edge, encased in aluminum foil, and placed in secondary containment. The secondary containment was placed in a plant growth chamber at 25° C. and 80% relative humidity. At approximately 24 hours post addition of juveniles, the plates were evaluated, and the number of live juveniles, dead juveniles and total number of juveniles were recorded (T24).
The difference in percent death at T0 vs T24 was calculated by subtracting the percent dead at TO [(#dead juveniles/total #juveniles)×100] from the percent dead at T24 [(#dead juveniles/#total juveniles originally present)×100]. […] If the ANOVA indicated a significant difference existed among treatments, Tukey's HSD post hoc test was used to perform a pairwise contrast between each set of treatments. Different letters denote statistically significant results at P<0.05.
as §5, with “from” for “from SCN”, “rinsed four” for “rinsed 4”, “and 80-90%” for “and 80%”, “from each” for “from the”
Potato dextrose agar media containing chloramphenicol and chlortetracycline was prepared and added to sterile twenty-four-well cell culture plates (1 mL per well). […]

[4] = test system: soybean cyst nematode (SCN, Heterodera glycines); assay: Controlled environment soybean seed treatment trial: SCN cysts on roots; settings: Table 16
soybean = assay: Field trial: Feruloyl Esterase soybean seed treatment, yield; settings: for Yield: soybean seed treatment, 1.0 fl oz/unit with Control Base Package
Excerpt: 1 fl oz/unit of Feruloyl Esterase (SEQ ID NO:91) was coated onto soybean seeds treated with Fludioxinil fungicide, metalaxyl fungicide, thiamethoxam […], Seedwork 1037L polymer, and Sensient Red (colorant). A control treatment without esterase enzyme was also created. The seed treated with esterase and control seed was planted in replicated trials distributed across 5 replicated plots with 4 replicates of 30 ft^2 each at each site.

B1: Bacillus thuringiensis Lipase (Lip1) (protein, listed as Bacillus thuringiensis)
chain: MRLMRRCVALLIVFFIMAPMISTNVRAGVVKELKTGFPDQEVFTPGEWFLGQKPANYDENKPPILFVQGRNGNADSWYGKTVYHDINDMYDYALKAGYQTVFIQLYDAAGKGSASQWDNGKLLAQKLEEIYNHFGKKVNIVAHSKGGIDTQAALVGYGANRFVGNVITLATPHHGSNLADLSYSWWAGWLASILGQKDDGTYSLQMGEMAKFRSTIDNNPAAKLNRYYTVTGTSWGPVFSALSMGGLYLSSYGSNDGLVNECSAKLPYGTHLFTDSRFDHDNIRKGSAVFARIEPYLRTANVPVPALVASSTSSNENIEQLNTTSNQSILGGELPQNQWIEQTVAVDKKAEGIVSILTASSDVEVQMISPKGKVYTNKDSVITTGEGESFFGGATIRTFKFDKMDVGEWKVKMMTKQSKDAYLVVSDYKTGAPFVLQMPTKVKANKSEYKLKKSPVAPEMKGDLSITVRVVNKEGKLVSEFNELQNVNNNTFTGALKNIKQPGVYNVTMDIKGMNKEGKSYSRTIVKSVYVEK
modifications: Lipase (Lip1 H192)
In the case of B1, the “Dead Larva” value ([1]; individuals of n = 16 after 7 days, water 0) is reported as 0, the “Larva Stage I” value ([1]; n = 16, water 0) is reported as 0 and the “Larva Stage II” value ([1]; n = 16, water 0) is reported as 0. For the same molecule, the “Early Pupa” value ([1]; n = 16, water 3) was 3, the “Late Pupa” value ([1]; n = 16, water 3) was 13 and the Adult ([1]; n = 16, water 10) was 0. The “Dead Larva” value ([2]; Btk resistant strain, individuals of n = 32 after 7 days, U/mL diet: SEQ 76 1.4, Bc 3.8, Pf 5.2, water 3) was 1, the Adult ([2]; n = 32, doses as E86, water 0) was 0 and the “Larva Stage I” value ([2]; n = 32, doses as E86, water 0) was 9. The “Larva Stage II” value ([2]; n = 32, doses as E86, water 0) was 12, the “Early Pupa” value ([2]; n = 32, doses as E86, water 7) was 10 and the “Late Pupa” value ([2]; n = 32, doses as E86, water 22) was 0.

B2: Sphingobium wenxiniae (PytH) Esterase (protein, listed as Sphingobium wenxiniae)
chain: MTVTDIILIHGALNRGACYDAVVPLLEARGYRVHAPDLTGHTPGDGGHLSVVDMEHYTRPVADILARAEGQSILLGHSLGGASISWLAQHHPDKVAGLIYLTAVLTAPGITPETFVLPGEPNRGTPHALDLIQPVDEGRGLQADFSRLERLREVFMGDYPGEGMPPAEQFIQTQSTVPFGTPNPMEGRALEIPRLYIEALDDVVIPIAVQRQMQKEFPGPVAVVSLPASHAPYYSMPERLAEAIADFADAPAEYRQTATKAGPDRPAGADGGRADRADLP
With B2 the Yield (corn; control 205.5) was 208.8 Bu/A, the Yield (corn; control 13820.1) was 14042.0 Kg/ha and the “yield versus base seed treatment package, in words” value (corn; text to Table 57, 0.5 fl oz/unit) was “increased the yield”.

B3: Pseudomonas sp. Esterase (protein, listed as Pseudomonas sp.)
chain: MTEPLILQPVKPADACVIWLHGLGADRYDFLPVAEALQEILLSTRFVLPQAPTRPVTINGGYAMPSWYDIKAMSPARAIDRDELEASADRIIELIEEQRSSGIDASRIFLAGFSQGGAVVYHTAFLKWQGPLGGVLALSTYAPTFSDELELSASQQRIPVLSLHGQFDNVVQNSMGRTAYEYLKAHGVTVTWQEYPMEHEVLPEEIRDIGTWLSERLR
For B3, the “Difference in Percent Death of Nematodes for 0 to 24 Hours” value ([3]; Table 17, 40 μL per well, water control 4%) was 22%, the “Difference in Percent Death of Nematodes for 0 to 24 Hours” value ([3]; Table 32, 40 μL of each treatment per well, water only 4%) was 22% and the “difference in percent death during 24 hours” value ([3]; text to Table 32) was 22%. The “% Comparison to Control” value ([4]; base control = 100%, change in brackets) was 90% (−10%) and the “Average cysts per g of root tissue” value ([4]; seed treatment, soybean 2830E3, concentrate = 4× volumetric concentration, base control 244.3) was 220.2 cysts per g of root tissue.

B4: Beauveria bassiana Feruloyl Esterase A2 (protein, listed as Beauveria bassiana)
chain: MLSLLGFLGFAALAAAAPVRDQAFIPRTLVNRSIYDKLALYAGYTQLSNTGICARPSVPGVLYQFVESKDTDTQVSIWKVDAYKEFVIAIPGTSSARDNETNFDFALVPYQADNVRCPSCRVHKGYQAAWRSVMKQVQGNLTNLLGIHPDYTVTLTGHSLGGGLVSIAFPTLRNGPYNVTQAYTYGQPRAGNGAFANYVDGISGASDKEAGIFYRVTHANDLIPKLPPGIFGYKHSRTEYWESKPSMDNAASTYRCYGQEPADCNRNATGIDSKVHVTYAGMNVTCNKS
modifications: Feruloyl Esterase A2
In the case of B4, the Yield (soybean; control 63.99) is reported as 64.86 Bu/A, the Yield (soybean; control 4303.4) is reported as 4361.9 Kg/ha and the “yield versus base seed treatment package, in words” value (soybean; text to Table 56, 1 fl oz/unit) is reported as “increased the yield”.
